Data as given in the supplement of paper PMC9170038.

Tested on: MS2 coat protein
Test: apparent KD of MS2 coat protein; designed switch direction (-1 OFF switch, 1 ON switch): -1; higher = weaker reporter binding
How it was run: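 An oligonucleotide input, 200 uM small-molecule ligand, or no input was present during titration of SNAP-549-labelled MS2 coat protein, which was doubled from 0.7 or 1.5 nM to 3 µM. Designed RNA switches had been transcribed on Illumina chips by stalled E. coli RNA polymerase. Apparent KD per design is the median over clusters of curves fitted to normalised cluster fluorescence.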

[1] = Eterna round: R95, input ligand: microRNA oligo, concentration not stated
[2] = input ligand: microRNA oligo, concentration not stated
[3] = Eterna round: R95, input ligand: FMN 200 uM
[4] = Eterna round: R95, input ligand: none

| Sequence | apparent KD of MS2 coat protein (input ligand: FMN 200 uM) [nM] | apparent KD of MS2 coat protein (input ligand: none) [nM] | apparent KD of MS2 coat protein [1] [nM] | apparent KD of MS2 coat protein [2] [nM] | apparent KD of MS2 coat protein [3] [nM] | apparent KD of MS2 coat protein [4] [nM] |
| --- | --- | --- | --- | --- | --- | --- |
| AGGGACGUAGGAUAUACCGUGUAGUACAUGAGGAUCACCCAUGUUUGCCUCAUAGUCCACGUAGAAGGAUGUGACA [Eternabot (L2) Solution 37] (Eterna round: R97, puzzle: Exclusion 5) | 70.9 | 64.1 | – | – | – | – |
| CCUGUACAUGAGGAUCACCCAUGUUAGGAUAUUCAGCCCGUCGAGUAUAAGGGUUUAAGAAGAAGGGACGUGGC [Beanused] (puzzle: Exclusion 1) | – | – | 13.9 | – | – | – |
| ACUUACUGAGGAUAUACAUAGAUUUACAUGAGGAUCACCCAUGUUCCUCUAUGUAUAUAUGUAGAAGGCAGAAGUG [Mat - Exclusion 5 - JL Mod - D36] (Eterna round: R97, puzzle: Exclusion 5) | 137 | 33.3 | – | – | – | – |
| AUUAUAUAGUAAGGAUAUUGAUUAUUAUUUUAACAUGAGGAUCACCCAUGUAGCCUUAUGUAUAACAAGAAGGUACAUUUAUUA [Title] (Eterna round: R96, puzzle: Exclusion NG 2) | – | – | – | 44.5 | – | – |
| UGUCUUCAUAUCACAUGAGGAUCACCCAUGUUAUUCAUCUCGUAGGAUAUCGAGGUUUUUUAUUUCGAGAAGGACGUAUUGUUU [JR_ExcNG3_Sub077] (Eterna round: R96, puzzle: Exclusion NG 3) | 215 | 153 | – | 135 | – | – |
| UUUAACAAGCCAGAUCCUCACAUGAGGAUCACCCAUGUGCUCGUCUGUUUUUGUACUAUCACGUUUGUGAUAGUGUU [Level Boss var2-08] (puzzle: Sensor v3, turn-off variant 1) | – | – | 16.2 | – | 220 | 295 |
| UCGACUACAGUAGGAUAUGUAGGAUAUGUGGUUGAGGAUCACCCAACCACUUCAACGACAGAAGGACAGAAGGACUGACAACGU [pwkr exNG2 2xFMN 1xF5.3] (Eterna round: R96, puzzle: Exclusion NG 2) | 16.8 | 16.5 | – | 14.8 | – | – |
| GAUCUGGCAGGAUAUACAUGAGGAUCACCCAUGUGCGAGCUAGCGAAAGCUAGCUCAGGUAGAAGGGUCAGAUC [Ex3 dot plot directed v1] (puzzle: Exclusion 3) | – | – | 10.8 | – | – | – |
| GAGCAGCGAGGAUAUACAGACGGGUCCAGUACGUGUCUUGGACUUGAGGAUCACCCAAGUAGAAGGCGUCUCAG [salish99_ex2_r4_608] (Eterna round: R97, puzzle: Exclusion 2) | 86.8 | 44.3 | – | – | – | – |
| UAUAUGUUAGGAUAUUAGUAGUAAAUGAAUAAAAUUAUUACUGAGAAGGGACAUGAGGAUCACCCAUGUACCUC [Mat - Exclusion 4 - Eli Mod - D30] (Eterna round: R97, puzzle: Exclusion 4) | 19.3 | 15.9 | – | – | – | – |
| AACAGUCUAGAGGAUAUGCUGGAUUAAUAUCUUGCAGAAGGCUGGACAUGAGGAUCACCCAUGUAAAUACUACC [Omei Ex6 A12] (Eterna round: R97, puzzle: Exclusion 6) | 94 | 31.9 | – | – | – | – |
| GAAAAGUAAGGAUAUUCACACAGUGAGGAAACUCACUGUGUGGAGAAGGUACAUGAGGAUCACCCAUGUUUCUC [ExDelusion 1 - Jieux - Exclusion 4] (Eterna round: R97, puzzle: Exclusion 4) | 229 | 30.3 | – | – | – | – |
| CGUUGGCGAGGAUAUACAUGAGGAUCACCCAUGUGAGAGAAAAAAGUGAGGAAGAAAAGUAGAAGGCGCUGACU [salish99_ex3_r3_051] (puzzle: Exclusion 3) | – | – | 31.7 | – | 101 | 54.3 |
| CUUUUGUGAGGAUAUCAGUAGUUAAAUAAUAAAAUUACUACUGAGAAGGCACAUGAGGAUCACCCAUGUUCCUC [Mat - Exclusion 4 - Mod of Salish - D70] (puzzle: Exclusion 4) | – | – | 35.5 | – | – | – |
| AAUUCCAAGCUCAACGUUCACAUGAGGAUCACCCAUGUCAUGAGCUGUUAUAAGUUCGGAUGUUAUAUUUUGCUCGU [Eternabot (L2) Solution 12] (Eterna round: R97, puzzle: Sensor, turn-off variant 1) | 14.6 | 15 | – | – | – | – |
| CUGCUGGAGCGGUGCUUUGGUCGUACAUGAGGAUCACCCAUGUAGGAUAUGGUAAAAUUUGCUUGCUAGAAGGAUAGAGUGGUC [salish99_ExNG3_r04_614] (Eterna round: R96, puzzle: Exclusion NG 3) | 96.9 | 61.3 | – | 42.4 | – | – |
| GAUUUAGAGCAGGAUAUCAUAGAAAUGUAUGAAUGAGAAGGGCUCACAUGAGGAUCACCCAUGUGGUCCUAGAU [JL Dibiri mod 20] (puzzle: Exclusion 6) | – | – | 23.5 | – | 144 | 20.3 |
| CGUCUGUCAGGAUAUACUUACGUAGACAUGAGGAUCACCCAUGUGACGUGGGACUGGUGAGUAGAAGGGACGAACA [EX5 #75] (Eterna round: R97, puzzle: Exclusion 5) | 28 | 30.6 | – | – | – | – |

| Sequence | apparent KD of MS2 coat protein (input ligand: FMN 200 uM) [nM] | apparent KD of MS2 coat protein (input ligand: none) [nM] | apparent KD of MS2 coat protein [1] [nM] | apparent KD of MS2 coat protein [2] [nM] | apparent KD of MS2 coat protein [3] [nM] | apparent KD of MS2 coat protein [4] [nM] |
| --- | --- | --- | --- | --- | --- | --- |
| UACCGGCGGACCGAGGCUUUUUGCUCGUCUUAUGCUACGACAUGAGGAUCACCCAUGUGGUGGUGGUCCGUUGUAGU [JL ViennaUCT Bitein mod 7] (puzzle: Sensor v3, turn-off variant 2) | – | – | 13.3 | – | 106 | 122 |
| GUUAAACAUGAGGAUCACCCAUGUAAGGAUAUGCUGAGGUCGCGCUGACGUGACUGAAGCAGAAGGUACAAAUG [Mat - Mod of JL D62] (puzzle: Exclusion 1) | – | – | 48.7 | – | 85.4 | 73.9 |
| CUUUGCACGCUGCGGUCCUACAUGAGGAUCACCCAUGUGGUCUGGUGGCGUGGGUCGCCGGACUUGGCUCGUCUUGA [salish99_S_TOV1_R5_040] (Eterna round: R97, puzzle: Sensor, turn-off variant 1) | 18.5 | 18.4 | – | – | – | – |
| CCACGACAUGAGGAUCACCCAUGUGAGGAUAUGGCCUGAAAAGCGUGAGCAGUUUUUAUCAGAAGGCGCGUGGG [salish99_ex1_r4_064_4A's4U's] (Eterna round: R97, puzzle: Exclusion 1) | 63.6 | 31.5 | – | – | – | – |
| CAACGUGAGCAGGAUAUACAGAGGGAGACCUGGGUAGAAGGGCUCACAUGAGGAUCACCCAUGUUAGCCAAAGA [Eternabot (Original) Solution 47] (Eterna round: R97, puzzle: Exclusion 6) | 33.3 | 18.8 | – | – | – | – |
| GAGAAGGUAGGAUAUACGAAGAAAGAGGGUAGGAAUAAUACACAUGAGGAUCACCCAUGUAGAAGGACCAAGAG [Mat - Exclusion 2 - Mod of my Tesla design - D46] (puzzle: Exclusion 2) | – | – | 21.4 | – | 38.7 | 24.2 |
| AGCUAGAUAGGAUAUGCCCGGGAUAACAUGAGGAUCACCCAUGUGGCCGAAUCAUGUCCAGCAGAAGGGUUUGGGA [Mod of ViennaUCT 10 - Jieux - Exclusion 5] (Eterna round: R97, puzzle: Exclusion 5) | 18.2 | 17 | – | – | – | – |
| AAACCUAUAGGAUAUACAUGAGGAUCACCCAUGUUGCGAUUUUUUAGGUAACAGAUCCGUAGAAGGGUAGGUUA [Anzaoror] (puzzle: Exclusion 3) | – | – | 24.4 | – | – | – |
| GUGUACGUAGGAUAUGCUGGAAUCUAGCGAAGCUAGGUUCCACAUGAGGAUCACCCAUGUAGAAGGGCGUACAC [Dot plot directed A v9] (puzzle: Exclusion 2) | – | – | 132 | – | – | – |
| GAAAAGAGAGGAUAUACUUGAGGAUCACCCAAGUAGGCGGUAACCGCCACGGGCCAGAGUAGAAGGCUCAAAAC [Beceanlave] (Eterna round: R97, puzzle: Exclusion 3) | 141 | 32.2 | – | – | – | – |
| GAAAGGGCAGGAUAUGCAGAGAGAGAGAGAGAGAGAAAAAAACAUGAGGAUCACCCAUGUAGAAGGGCCGAAAG [salish99-ex2-06] (Eterna round: R96, puzzle: Exclusion 2) | 31 | 34.2 | – | 27.8 | – | – |
| AAGUACCGUCACGAUAGUGAUGGUACAACAAGUAAGUGAACAUGAGGAUCACCCAUGUCCUCUUUUGCUCGUCUUAU [Sensor 3 - 90] (puzzle: Sensor v3, turn-off variant 2) | – | – | 18.4 | – | 309 | 334 |
| AAAUAAUAGAUAAAAUAAAACAUGAGGAUCACCCAUGUGGGAUGCUGAGGGUGAUACAAGCUUUUUGCUCGUCUUAU (puzzle: Sensor v3, turn-off variant 1) | – | – | 57.7 | – | 210 | 182 |
| CAAGAUUACUGAGGAUAUCCUAGUUUAUUUCAGGGAGAAGGCGGACUCAACAUGAGGAUCACCCAUGUAAGACGGGUACUAGAG [Ex NG1 #16] (Eterna round: R96, puzzle: Exclusion NG 1) | 94.7 | 78.4 | – | 71.1 | – | – |
| GUGUAGUGAGGAUAUCGUUGUUAGGAGGAGAAGGUAGGAGGCGAGAAGGCACAUGAGGAUCACCCAUGUAUGAG [JR_Exclu4_Sub063] (puzzle: Exclusion 4) | – | – | 23.5 | – | – | – |
| AAGCGCGUAGGAUAUACAUGAGGAUCACCCAUGUGAGGAAGGAGUUGGAAGUGUGGAAGUAGAAGGACGGAGUG [JR_Exclu3_Sub078] (puzzle: Exclusion 3) | – | – | 44.3 | – | 35.4 | 41.7 |
| AAAAUGUGAGGAUAUCAGGUGUGCUAGCGUACUGGUACAUCUGAGAAGGCACAUGAGGAUCACCCAUGUUUCUU [Mat - Exclusion 4 - Mod of JL - D44] (puzzle: Exclusion 4) | – | – | 22.5 | – | – | – |
